Test results taken from patent US20220315554A1 (3B PHARMACEUTICALS GMBH, published 2022).
One block for each binder: values may come before it. Numbered stars: 1 amine (or outer) side, 2 acyl side, 3 side chain; on linkers, the order of the positions; unused ones are H or OH. Bridge positions count the residues as written; N and C are the ends. Ends that are not written are not given here. * marks the point of attachment. Ttds = 1,13-diamino-4,7,10-trioxatridecan-succinamic acid, NCCCOCCOCCOCCCNC(=O)CCC(=O)*; tMeBn(DOTA-AET) = Cys-Cys bridge (thioethers) carrying DOTA-AET; tMeBn(DOTA-PP) = Cys-Cys bridge (thioethers) carrying DOTA-PP; DOTA = O=C(O)CN1CCN(CC(=O)O)CCN(CC(=O)*)CCN(CC(=O)O)CC1; mXylylene = c1cc(C[*:1])cc(C[*:2])c1; 2Lut = Cys-Cys bridge (thioethers); 3Lut = Cys-Cys bridge (thioethers); Pentanesulfonyl = CCCCCS(=O)(=O)*; Hexanoyl = CCCCCC(=O)*

Tests used:
[1] = biological target: T1, human fibroblast activation protein (FAP) on FAP-expressing human WI-38 fibroblasts (human); assay: competition FACS, WI-38 cells, vs Cy5-labeled compound; A: pIC50 >8.0
[2] = biological target: T1, human fibroblast activation protein …; assay: competition FACS, WI-38 cells, vs Cy5-labeled compound; D: pIC50 ≤6.0

T1 sequence (chain, as listed by the source): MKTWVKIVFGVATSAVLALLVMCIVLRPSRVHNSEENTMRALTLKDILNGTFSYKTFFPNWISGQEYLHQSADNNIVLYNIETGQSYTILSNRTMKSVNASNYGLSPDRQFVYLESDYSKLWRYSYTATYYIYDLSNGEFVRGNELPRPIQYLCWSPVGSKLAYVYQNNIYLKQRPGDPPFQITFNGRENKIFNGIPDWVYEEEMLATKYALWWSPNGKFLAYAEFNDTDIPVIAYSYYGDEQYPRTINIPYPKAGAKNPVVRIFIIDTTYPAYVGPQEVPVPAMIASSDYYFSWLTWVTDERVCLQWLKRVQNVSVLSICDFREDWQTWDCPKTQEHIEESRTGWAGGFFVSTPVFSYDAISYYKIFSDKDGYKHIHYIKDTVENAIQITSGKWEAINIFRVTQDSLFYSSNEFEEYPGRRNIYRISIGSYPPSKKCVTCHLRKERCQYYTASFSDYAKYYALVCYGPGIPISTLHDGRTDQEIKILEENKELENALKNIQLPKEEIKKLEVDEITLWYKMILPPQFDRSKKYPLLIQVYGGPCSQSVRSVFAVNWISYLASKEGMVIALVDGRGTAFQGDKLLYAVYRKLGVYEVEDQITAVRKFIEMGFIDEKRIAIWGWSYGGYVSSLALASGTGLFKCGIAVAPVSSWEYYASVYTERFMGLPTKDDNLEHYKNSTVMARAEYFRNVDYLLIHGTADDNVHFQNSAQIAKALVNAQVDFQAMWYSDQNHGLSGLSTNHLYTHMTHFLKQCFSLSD

pIC50 Category (FACS) [1]: > 8 pIC50
Binder: Hexanoyl-CPPTQFCD-NH2 (linker 1-7 via tMeBn(InDOTA-PP); also: In-DOTA complex) [Hex-[Cys(tMeBn(InDOTA-PP))-Pro-Pro-Thr-Gln-Phe-Cys]-Asp-NH2]

pIC50 Category (FACS) [1]: > 8 pIC50
Binder: Hexanoyl-CPPTQFCD-NH2 (linker 1-7 via tMeBn(DOTA-PP)) [Hex-[Cys(tMeBn(DOTA-PP))-Pro-Pro-Thr-Gln-Phe-Cys]-Asp-NH2]

pIC50 Category (FACS) [1]: > 8 pIC50
B1: Hex-[Cys(3MeBn)-Pro-Pro-Thr-Gln-Phe-Cys]-Asp-Ape-NH-DOTA' (peptide)
peptide: Hexanoyl-CPPTQFCD
modifications: linker 1-7 via mXylylene; not fully specified (C-terminus); printed as Hex-[Cys(3MeBn)-Pro-Pro-Thr-Gln-Phe-Cys]-Asp-Ape(DOTA)

pIC50 Category (FACS) [1]: > 8 pIC50
B2: Hex-[Cys(tMeBn(DOTA-AET))-Pro-Pro-Thr-Gln-Phe-Cys]-asp-NH2 (peptide)
peptide: CPPTQFCD
modifications: N-terminal Hex (hexanoyl); Cys1-Cys7 bridged by tMeBn(DOTA-AET) (thioethers); D-Asp8 (asp); C-terminal amide

pIC50 Category (FACS) [1]: > 8 pIC50
B3: Hex-[Cys(3MeBn)-Pro-Pro-Thr-Gln-Phe-Cys]-Asp-NH2 (peptide)
peptide: Hexanoyl-CPPTQFCD-NH2
modifications: linker 1-7 via mXylylene
SMILES: CCCCCC(=O)N[C@H]1CSCc2cccc(c2)CSC[C@@H](C(=O)N[C@@H](CC(=O)O)C(N)=O)NC(=O)[C@H](Cc2ccccc2)NC(=O)[C@H](CCC(N)=O)NC(=O)[C@H]([C@@H](C)O)NC(=O)[C@@H]2CCCN2C(=O)[C@@H]2CCCN2C1=O

pIC50 Category (FACS) [1]: > 8 pIC50
B4: Hex-[Cys(3MeBn)-Pro-Pro-Thr-Glu-Phe-Cys]-Asp-His-Phe-Arg-Asp-NH2 (peptide)
peptide: Hexanoyl-CPPTEFCDHFRD-NH2
modifications: linker 1-7 via mXylylene
SMILES: CCCCCC(=O)N[C@H]1CSCc2cccc(c2)CSC[C@@H](C(=O)N[C@@H](CC(=O)O)C(=O)N[C@@H](Cc2c[nH]cn2)C(=O)N[C@@H](Cc2ccccc2)C(=O)N[C@@H](CCCNC(=N)N)C(=O)N[C@@H](CC(=O)O)C(N)=O)NC(=O)[C@H](Cc2ccccc2)NC(=O)[C@H](CCC(=O)O)NC(=O)[C@H]([C@@H](C)O)NC(=O)[C@@H]2CCCN2C(=O)[C@@H]2CCCN2C1=O

pIC50 Category (FACS) [1]: > 8 pIC50
B5: Ac-[Cys(3MeBn)-Pro-Pro-Thr-Glu-Phe-Cys]-Asp-His-Phe-Arg-Asp-NH2 (peptide)
peptide: Ac-CPPTEFCDHFRD-NH2
modifications: linker 1-7 via mXylylene
SMILES: CC(=O)N[C@H]1CSCc2cccc(c2)CSC[C@@H](C(=O)N[C@@H](CC(=O)O)C(=O)N[C@@H](Cc2c[nH]cn2)C(=O)N[C@@H](Cc2ccccc2)C(=O)N[C@@H](CCCNC(=N)N)C(=O)N[C@@H](CC(=O)O)C(N)=O)NC(=O)[C@H](Cc2ccccc2)NC(=O)[C@H](CCC(=O)O)NC(=O)[C@H]([C@@H](C)O)NC(=O)[C@@H]2CCCN2C(=O)[C@@H]2CCCN2C1=O

pIC50 Category (FACS) [1]: > 8 pIC50
Binder: {DOTA-Ttds}-LCPPTEFCDHFRD-NH2 (linker 2-8 via mXylylene) [DOTA-Ttds-Leu-[Cys(3MeBn)-Pro-Pro-Thr-Glu-Phe-Cys]-Asp-His-Phe-Arg-Asp-NH2]

pIC50 Category (FACS) [1]: > 8 pIC50
Binder: Hexanoyl-CPPTQFCD-NH2 (linker 1-7 via tMeBn(EuDOTA-PP); also: Eu-DOTA complex) [Hex-[Cys(tMeBn(EuDOTA-PP))-Pro-Pro-Thr-Gln-Phe-Cys]-Asp-NH2]

pIC50 Category (FACS) [1]: > 8 pIC50
Binder: Pentanesulfonyl-CPPTQFCD-NH2 (linker 1-7 via tMeBn(DOTA-PP)) [Pentyl-SO2-[Cys(tMeBn(DOTA-PP))-Pro-Pro-Thr-Gln-Phe-Cys]-Asp-NH2]

pIC50 Category (FACS) [1]: > 8 pIC50
Binder: Hexanoyl-CPPTEFC-NH2 (linker 1-7 via tMeBn(DOTA-AET)) [Hex-[Cys(tMeBn(DOTA-AET))-Pro-Pro-Thr-Glu-Phe-Cys]-NH2]

pIC50 Category (FACS) [2]: ≤ 6 pIC50
B6: Hex-[Cys(3MeBn)-Pro-Pro-Thr-Ala-Phe-Cys]-NH2 (peptide)
peptide: Hexanoyl-CPPTAFC-NH2
modifications: linker 1-7 via mXylylene
SMILES: CCCCCC(=O)N[C@H]1CSCc2cccc(c2)CSC[C@@H](C(N)=O)NC(=O)[C@H](Cc2ccccc2)NC(=O)[C@H](C)NC(=O)[C@H]([C@@H](C)O)NC(=O)[C@@H]2CCCN2C(=O)[C@@H]2CCCN2C1=O

pIC50 Category (FACS) [1]: > 8 pIC50
Binder: Hexanoyl-CPPTQFCD-NH2 (linker 1-7 via tMeBn(DOTA-AET)) [Hex-[Cys(tMeBn(DOTA-AET))-Pro-Pro-Thr-Gln-Phe-Cys]-Asp-NH2]

pIC50 Category (FACS) [1]: > 8 pIC50
Binder: Pentanesulfonyl-CPPTEFC-OH (linker 1-7 via tMeBn(DOTA-AET)) [Pentyl-SO2-[Cys(tMeBn(DOTA-AET))-Pro-Pro-Thr-Glu-Phe-Cys]-OH]

pIC50 Category (FACS) [1]: > 8 pIC50
Binder: Hexanoyl-CPPTQFCS-OH (linker 1-7 via tMeBn(DOTA-AET)) [Hex-[Cys(tMeBn(DOTA-AET))-Pro-Pro-Thr-Gln-Phe-Cys]-Ser-OH]

pIC50 Category (FACS) [1]: > 8 pIC50
Binder: Hexanoyl-CPPTQFCD-OH (linker 1-7 via tMeBn(DOTA-AET)) [Hex-[Cys(tMeBn(DOTA-AET))-Pro-Pro-Thr-Gln-Phe-Cys]-Asp-OH]

pIC50 Category (FACS) [1]: > 8 pIC50
B7: Hex-[Cys(3MeBn)-Pro-Pro-Thr-Gln-Phe-Cys]-Asp-Ttds-Ape-NH-DOTA' (peptide)
peptide: Hexanoyl-CPPTQFCD
modifications: linker 1-7 via mXylylene; not fully specified (C-terminus); printed as Hex-[Cys(3MeBn)-Pro-Pro-Thr-Gln-Phe-Cys]-Asp-Ttds-Ape(DOTA)

pIC50 Category (FACS) [2]: ≤ 6 pIC50
B8: Hex-[Cys(3MeBn)-Pro-Pro-Ala-Glu-Phe-Cys]-NH2 (peptide)
peptide: Hexanoyl-CPPAEFC-NH2
modifications: linker 1-7 via mXylylene
SMILES: CCCCCC(=O)N[C@H]1CSCc2cccc(c2)CSC[C@@H](C(N)=O)NC(=O)[C@H](Cc2ccccc2)NC(=O)[C@H](CCC(=O)O)NC(=O)[C@H](C)NC(=O)[C@@H]2CCCN2C(=O)[C@@H]2CCCN2C1=O

pIC50 Category (FACS) [1]: > 8 pIC50
Binder: Hexanoyl-CPPTQFCD-NH2 (linker 1-7 via tMeBn(GaDOTA-PP)) [Hex-[Cys(tMeBn(GaDOTA-PP))-Pro-Pro-Thr-Gln-Phe-Cys]-Asp-NH2]

pIC50 Category (FACS) [1]: > 8 pIC50
B9: Pentyl-SO2-[Cys(3MeBn)-Pro-Pro-Thr-Gln-Phe-Cys]-Asp-NH2 (peptide)
peptide: Pentanesulfonyl-CPPTQFCD-NH2
modifications: linker 1-7 via mXylylene
SMILES: CCCCCS(=O)(=O)N[C@H]1CSCc2cccc(c2)CSC[C@@H](C(=O)N[C@@H](CC(=O)O)C(N)=O)NC(=O)[C@H](Cc2ccccc2)NC(=O)[C@H](CCC(N)=O)NC(=O)[C@H]([C@@H](C)O)NC(=O)[C@@H]2CCCN2C(=O)[C@@H]2CCCN2C1=O

pIC50 Category (FACS) [1]: > 8 pIC50
Binder: Hexanoyl-CPPTQFCD-NH2 (linker 1-7 via 2Lut) [Hex-[Cys(2Lut)-Pro-Pro-Thr-Gln-Phe-Cys]-Asp-NH2]

pIC50 Category (FACS) [1]: > 8 pIC50
Binder: Hexanoyl-CPPTQFCD-NH2 (linker 1-7 via 3Lut) [Hex-[Cys(3Lut)-Pro-Pro-Thr-Gln-Phe-Cys]-Asp-NH2]

pIC50 Category (FACS) [1]: > 8 pIC50
Binder: Hexanoyl-CPPTQFCD-NH2 (linker 1-7 via tMeBn(LuDOTA-PP); also: Lu-DOTA complex) [Hex-[Cys(tMeBn(LuDOTA-PP))-Pro-Pro-Thr-Gln-Phe-Cys]-Asp-NH2]
